According to patent US20100183625A1, “Treatment of Mucositis with Kallikrein Inhibitors” (Dyax Corp., priority 2009, published 2010):

Target: T1, pKal (Homo sapiens, UniProt P03952)
T1 construct: two disulfide linked polypeptides; a heavy chain of approximately 52 kDa and a catalytic domain of approximately 34 kDa; host or cells: human plasma
Assay: Fab fragments (small scale) tested for inhibition against human pKal in an in vitro protease cleavage assay
Format: biochemical
Settings: Table 9
Experimental: By DNA sequencing, we recovered 61 of the possible 80 antibodies (Table 9). These antibodies were produced as Fab fragments in small scale (˜20 μg) and tested for inhibition against human pKal in an in vitro protease cleavage assay using Pro-Phe-Arg-aminomethylcoumarin as the synthetic peptide substrate. […] Five antibodies were then expressed in 293T cells and purified by protein A sepharose chromatography. The antibodies were analyzed by SDS-PAGE to determine which of the inhibitory mutants are not cleaved by the host cell protease(s) (data not shown).

T1 sequence (P03952 391-638 limits assumed): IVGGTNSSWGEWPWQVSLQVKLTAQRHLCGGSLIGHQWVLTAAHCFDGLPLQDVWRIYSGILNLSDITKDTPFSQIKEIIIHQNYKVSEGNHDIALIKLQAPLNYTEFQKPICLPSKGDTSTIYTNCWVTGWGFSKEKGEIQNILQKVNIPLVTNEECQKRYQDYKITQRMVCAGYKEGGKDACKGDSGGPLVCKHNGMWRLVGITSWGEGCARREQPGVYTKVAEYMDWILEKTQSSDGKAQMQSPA
T1 sequence (P03952 20-390 partner limits assumed): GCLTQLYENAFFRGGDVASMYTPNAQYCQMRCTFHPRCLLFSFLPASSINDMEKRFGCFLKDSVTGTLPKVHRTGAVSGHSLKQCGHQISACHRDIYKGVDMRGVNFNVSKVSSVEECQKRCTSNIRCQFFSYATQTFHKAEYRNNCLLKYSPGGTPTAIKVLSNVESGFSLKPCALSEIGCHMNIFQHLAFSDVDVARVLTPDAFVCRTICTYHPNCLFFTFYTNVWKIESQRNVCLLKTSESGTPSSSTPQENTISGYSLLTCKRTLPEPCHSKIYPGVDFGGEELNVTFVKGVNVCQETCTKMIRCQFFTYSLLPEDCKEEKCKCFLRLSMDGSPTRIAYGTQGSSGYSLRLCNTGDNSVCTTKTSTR

Molecule | Inhibit as a Fab?
X66-G08: single point mutation of M142-H08 (P1); HV-CDR3 GGLLLWFYELKSNYFDY (antibody, V domains shown) VL: QDIQMTQSPSSLSAFVGDRVTITCRASQPIDNYLNWYHQKPGKAPKLLIYAASRLQSGVPSRLSGSGFGTDFTLTISSLQPEDFGNYYCQQSYTVPYTFGGGTKVEIR VH: EVQLLESGGGLVQPGGSLRLSCAASGFTFSAYSMIWVRQAPGKGLEWVSYIRPSGGRTTYADSVKGRFTISRDNSKNTLYLQMNSLRAEDTAVYYCARGGLLLWFYELKSNYFDYWGQGTLVTVSSASTKGPSVFPLAPSSKS | No
X69-E01: single point mutation of M142-H08 (P1′); HV-CDR3 GGLLLWFRWLKSNYFDY (antibody, V domains shown) VL: QDIQMTQSPSSLSAFVGDRVTITCRASQPIDNYLNWYHQKPGKAPKLLIYAASRLQSGVPSRLSGSGFGTDFTLTISSLQPEDFGNYYCQQSYTVPYTFGGGTKVEIR VH: EVQLLESGGGLVQPGGSLRLSCAASGFTFSAYSMIWVRQAPGKGLEWVSYIRPSGGRTTYADSVKGRFTISRDNSKNTLYLQMNSLRAEDTAVYYCARGGLLLWFRWLKSNYFDYWGQGTLVTVSSASTKGPSVFPLAPSSKS | Yes
X69-F05: single point mutation of M142-H08 (P1′); HV-CDR3 GGLLLWFRLLKSNYFDY (antibody, V domains shown) VL: QDIQMTQSPSSLSAFVGDRVTITCRASQPIDNYLNWYHQKPGKAPKLLIYAASRLQSGVPSRLSGSGFGTDFTLTISSLQPEDFGNYYCQQSYTVPYTFGGGTKVEIR VH: EVQLLESGGGLVQPGGSLRLSCAASGFTFSAYSMIWVRQAPGKGLEWVSYIRPSGGRTTYADSVKGRFTISRDNSKNTLYLQMNSLRAEDTAVYYCARGGLLLWFRLLKSNYFDYWGQGTLVTVSSASTKGPSVFPLAPSSKS | Yes
X69-B02: single point mutation of M142-H08 (P1′); HV-CDR3 GGLLLWFRCLKSNYFDY (antibody, V domains shown) VL: QDIQMTQSPSSLSAFVGDRVTITCRASQPIDNYLNWYHQKPGKAPKLLIYAASRLQSGVPSRLSGSGFGTDFTLTISSLQPEDFGNYYCQQSYTVPYTFGGGTKVEIR VH: EVQLLESGGGLVQPGGSLRLSCAASGFTFSAYSMIWVRQAPGKGLEWVSYIRPSGGRTTYADSVKGRFTISRDNSKNTLYLQMNSLRAEDTAVYYCARGGLLLWFRCLKSNYFDYWGQGTLVTVSSASTKGPSVFPLAPSSKS | No
X69-D09: single point mutation of M142-H08 (P1′); HV-CDR3 GGLLLWFRGLKSNYFDY (antibody, V domains shown) VL: QDIQMTQSPSSLSAFVGDRVTITCRASQPIDNYLNWYHQKPGKAPKLLIYAASRLQSGVPSRLSGSGFGTDFTLTISSLQPEDFGNYYCQQSYTVPYTFGGGTKVEIR VH: EVQLLESGGGLVQPGGSLRLSCAASGFTFSAYSMIWVRQAPGKGLEWVSYIRPSGGRTTYADSVKGRFTISRDNSKNTLYLQMNSLRAEDTAVYYCARGGLLLWFRGLKSNYFDYWGQGTLVTVSSASTKGPSVFPLAPSSKS | Yes
X69-D02: single point mutation of M142-H08 (P1′); HV-CDR3 GGLLLWFRHLKSNYFDY (antibody, V domains shown) VL: QDIQMTQSPSSLSAFVGDRVTITCRASQPIDNYLNWYHQKPGKAPKLLIYAASRLQSGVPSRLSGSGFGTDFTLTISSLQPEDFGNYYCQQSYTVPYTFGGGTKVEIR VH: EVQLLESGGGLVQPGGSLRLSCAASGFTFSAYSMIWVRQAPGKGLEWVSYIRPSGGRTTYADSVKGRFTISRDNSKNTLYLQMNSLRAEDTAVYYCARGGLLLWFRHLKSNYFDYWGQGTLVTVSSASTKGPSVFPLAPSSKS | No
X69-D08: single point mutation of M142-H08 (P1′); HV-CDR3 GGLLLWFRALKSNYFDY (antibody, V domains shown) VL: QDIQMTQSPSSLSAFVGDRVTITCRASQPIDNYLNWYHQKPGKAPKLLIYAASRLQSGVPSRLSGSGFGTDFTLTISSLQPEDFGNYYCQQSYTVPYTFGGGTKVEIR VH: EVQLLESGGGLVQPGGSLRLSCAASGFTFSAYSMIWVRQAPGKGLEWVSYIRPSGGRTTYADSVKGRFTISRDNSKNTLYLQMNSLRAEDTAVYYCARGGLLLWFRALKSNYFDYWGQGTLVTVSSASTKGPSVFPLAPSSKS | No
X69-A10: single point mutation of M142-H08 (P1′); HV-CDR3 GGLLLWFRPLKSNYFDY (antibody, V domains shown) VL: QDIQMTQSPSSLSAFVGDRVTITCRASQPIDNYLNWYHQKPGKAPKLLIYAASRLQSGVPSRLSGSGFGTDFTLTISSLQPEDFGNYYCQQSYTVPYTFGGGTKVEIR VH: EVQLLESGGGLVQPGGSLRLSCAASGFTFSAYSMIWVRQAPGKGLEWVSYIRPSGGRTTYADSVKGRFTISRDNSKNTLYLQMNSLRAEDTAVYYCARGGLLLWFRPLKSNYFDYWGQGTLVTVSSASTKGPSVFPLAPSSKS | No
X69-F09: single point mutation of M142-H08 (P1′); HV-CDR3 GGLLLWFRSLKSNYFDY (antibody, V domains shown) VL: QDIQMTQSPSSLSAFVGDRVTITCRASQPIDNYLNWYHQKPGKAPKLLIYAASRLQSGVPSRLSGSGFGTDFTLTISSLQPEDFGNYYCQQSYTVPYTFGGGTKVEIR VH: EVQLLESGGGLVQPGGSLRLSCAASGFTFSAYSMIWVRQAPSKGLEWVSYIRPSGGRTTYADSVKGRFTISRDNSKNTLYLQMNSLRAEDTAVYYCARGGLLLWFRSLKSNYFDYWGQGTLVTVSSASTKGPSVFPLAPSSKS | Yes
X69-B08: single point mutation of M142-H08 (P1′); HV-CDR3 GGLLLWFRNLKSNYFDY (antibody, V domains shown) VL: QDIQMTQSPSSLSAFVGDRVTITCRASQPIDNYLNWYHQKPGKAPKLLIYAASRLQSGVPSRLSGSGFGTDFTLTISSLQPEDFGNYYCQQSYTVPYTFGGGTKVEIR VH: EVQLLESGGGLVQPGGSLRLSCAASGFTFSAYSMIWVRQAPGKGLEWVSYIRPSGGRTTYADSVKGRFTISRDNSKNTLYLQMNSLRAEDTAVYYCARGGLLLWFRNLKSNYFDYWGQGTLVTVSSASTKGPSVFPLAPSSKS | Yes
X69-A12: single point mutation of M142-H08 (P1′); HV-CDR3 GGLLLWFRKLKSNYFDY (antibody, V domains shown) VL: QDIQMTQSPSSLSAFVGDRVTITCRASQPIDNYLNWYHQKPGKAPKLLIYAASRLQSGVPSRLSGSGFGTDFTLTISSLQPEDFGNYYCQQSYTVPYTFGGGTKVEIR VH: EVQLLESGGGLVQPGGSLRLSCAASGFTFSAYSMIWVRQAPGKGLEWVSYIRPSGGRTTYADSVKGRFTISRDNSKNTLYLQMNSLRAEDTAVYYCARGGLLLWFRKLKSNYFDYWGQGTLVTVSSASTKGPSVFPLAPSSKS | No
X69-C12: single point mutation of M142-H08 (P1′); HV-CDR3 GGLLLWFRVLKSNYFDY (antibody, V domains shown) VL: QDIQMTQSPSSLSAFVGDRVTITCRASQPIDNYLNWYHQKPGKAPKLLIYAASRLQSGVPSRLSGSGFGTDFTLTISSLQPEDFGNYYCQQSYTVPYTFGGGTKVEIR VH: EVQLLESGGGLVQPGGSLRLSCAASGFTFSAYSMIWVRQAPGKGLEWVSYIRPSGGRTTYADSVKGRFTISRDNSKNTLYLQMNSLRAEDTAVYYCARGGLLLWFRVLKSNYFDYWGQGTLVTVSSASTKGPSVFPLAPSSKS | Yes
X69-A09: single point mutation of M142-H08 (P1′); HV-CDR3 … (antibody, V domains shown) VL: QDIQMTQSPSSLSAFVGDRVTITCRASQPIDNYLNWYHQKPGKAPKLLIYAASRLQSGVPSRLSGSGFGTDFTLTISSLQPEDFGNYYCQQSYTVPYTFGGGTKVEIR VH: EVQLLESGGGLVQPGGSLRLSCAASGFTFSAYSMIWVRQAPGKGLEWVSYIRPSGGRTTYADSVKGRFTISRDNSKNTLYLQMNSLRAEDTAVYYCARGGLLLWFRSLKSNYFDYWGQGTLVTVSSASTKGPSVFPLAPSSKS | Yes
X69-F01: single point mutation of M142-H08 (P1′); HV-CDR3 GGLLLWFRTLKSNYFDY (antibody, V domains shown) VL: QDIQMTQSPSSLSAFVGDRVTITCRASQPIDNYLNWYHQKPGKAPKLLIYAASRLQSGVPSRLSGSGFGTDFTLTISSLQPEDFGNYYCQQSYTVPYTFGGGTKVEIR VH: EVQLLESGGGLVQPGGSLRLSCAASGFTFSAYSMIWVRQAPSKGLEWVSYIRPSGGRTTYADSVKGRFTISRDNSKNTLYLQMNSLRAEDTAVYYCARGGLLLWFRTLKSNYFDYWGQGTLVTVSSASTKGPSVFPLAPSSKS | Yes
X69-E05: single point mutation of M142-H08 (P1′); HV-CDR3 GGLLLWFRRLKSNYFDY (antibody, V domains shown) VL: QDIQMTQSPSSLSAFVGDRVTITCRASQPIDNYLNWYHQKPGKAPKLLIYAASRLQSGVPSRLSGSGFGTDFTLTISSLQPEDFGNYYCQQSYTVPYTFGGGTKVEIR VH: EVQLLESGGGLVQPGGSLRLSCAASGFTFSAYSMIWVRQAPGKGLEWVSYIRPSGGRTTYADSVKGRFTISRDNSKNTLYLQMNSLRAEDTAVYYCARGGLLLWFRRLKSNYFDYWGQGTLVTVSSASTKGPSVFPLAPSSKS | No
